Measured values published in patent US20100221257A1 (AstraZeneca / MedImmune, published 2010).
One block for each binder: values may come before it.

Key:
[1] = biological target: T1, cynomolgus monkey HIS IL1RFc (cynomolgus monkey); assay: KinExA, FAb equilibrated in solution with IL-1R1-Fc; free FAb captured on IL-1R1 beads
T1 construct: also called Cyno his IL1RFc; CynoIL1-R1-Fc
Method: (§1) Firstly either a monomerised FAb was allowed to come to equilibrium with sIL-1R1-Fc (soluble sIL-1R1-Fc), or the IgG was allowed to come to equilibrium with sIL-1R1 (un-tagged). These equilibrated solutions of the interacting molecules were then analysed using KinExA™. 3200 technology. In brief, for each equilibrated sample, the KinExA™. 3200 instrument automatically packed a fresh column of sIL-1R1 conjugated micro-beads. The sample containing antibody (or FAb fragment), antigen, and Ab/antigen (or FAb/antigen) complex (in Dulbecco's PBS, 1 mg mL⁻¹ bovine serum albumin, 0.02% (w/v) sodium azide) was flowed rapidly (0.25 mL/min) through the column to keep the contact time of the sample with the antigen-beads extremely brief. This rapid contact time ensured that, for high affinity (slowly dissociating) interactions, dissociation of the complex was negligible during this short contact time. Free antibody bound to the IL-1R1-beads. A Cy5™ (cyanine) fluorescently labelled secondary antibody, mouse anti-human IgG (heavy and light chain specific) was then passed through the column. Labelled secondary antibody bound to the antibody bound to the column. A buffer wash removed excess label, leaving fluorescence signal on the bead column directly proportional to the amount of free […] in the original sample. […]

[2] = biological target: T2, human histidine tagged (HIS) IL1RFc fusion protein (human); assay: as above
T2 construct: Biotinylated or cryptate labelled in some assays; also called human HIS IL1RFc; huIL-1R1-Fc
Method: as §1

[3] = biological target: T3, Human sIL-1R1 (R&D Systems), un-tagged (human, UniProt P14778 18-332, limits assumed); assay: KinExA, IgG equilibrated in solution with un-tagged sIL-1R1; free IgG captured on IL-1R1 beads
T3 construct: Bought; also called soluble human IL-1R1
T3 sequence (looked up): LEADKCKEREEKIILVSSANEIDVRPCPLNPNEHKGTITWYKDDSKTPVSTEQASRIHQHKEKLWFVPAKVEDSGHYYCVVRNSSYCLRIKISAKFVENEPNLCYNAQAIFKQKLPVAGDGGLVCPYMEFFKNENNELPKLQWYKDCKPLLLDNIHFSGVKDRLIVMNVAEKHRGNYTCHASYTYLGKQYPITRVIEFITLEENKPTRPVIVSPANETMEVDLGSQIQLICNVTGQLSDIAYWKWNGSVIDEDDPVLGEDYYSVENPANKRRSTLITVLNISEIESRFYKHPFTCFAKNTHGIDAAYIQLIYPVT
Method: as §1

[4] = biological target: T4, human IL-1R1, endogenous on human cells (HeLa cells; whole blood) (human, UniProt P14778 18-569); assay: cell-based or functional assay
T4 sequence (looked up): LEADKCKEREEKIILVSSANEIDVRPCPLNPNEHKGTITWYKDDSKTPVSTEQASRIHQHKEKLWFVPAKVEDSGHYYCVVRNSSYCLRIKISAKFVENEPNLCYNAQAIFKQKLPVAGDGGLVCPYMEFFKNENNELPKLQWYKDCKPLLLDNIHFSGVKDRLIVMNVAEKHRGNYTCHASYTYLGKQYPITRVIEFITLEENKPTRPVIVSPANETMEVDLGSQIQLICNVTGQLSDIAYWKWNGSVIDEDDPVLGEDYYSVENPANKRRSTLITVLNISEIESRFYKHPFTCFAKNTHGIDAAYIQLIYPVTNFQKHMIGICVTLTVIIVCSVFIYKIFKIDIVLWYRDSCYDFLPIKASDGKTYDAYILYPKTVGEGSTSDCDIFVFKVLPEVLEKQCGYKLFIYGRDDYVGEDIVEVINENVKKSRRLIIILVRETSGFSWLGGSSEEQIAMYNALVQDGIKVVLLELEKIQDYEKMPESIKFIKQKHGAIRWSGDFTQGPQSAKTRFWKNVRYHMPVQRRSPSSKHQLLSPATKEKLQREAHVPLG

[5] = biological target: T2, human histidine tagged (HIS) IL1RFc …; assay: HTRF receptor-ligand assay, scFv inhibiting HIS FLAG IL-1β binding to human HIS IL1RFc; incomplete inhibition curve, value estimated; incomplete inhibition curve; IC50 estimated
Method: (§2) After pre-incubation of the assay plates, 5 μl of 4 nM HIS FLAG IL1 beta was added. This was followed by 5 μl of 20 nM anti-FLAG IgG labelled with XL665 (CIS Bio international 61FG2XLB) and 5 μl of 3.2 nM anti-human Fc IgG labelled with cryptate (CIS Bio International 61HFCKLB). All dilutions were performed in phosphate buffered saline (PBS) containing 0.4 M potassium fluoride and 0.1% BSA (assay buffer).
(§3) Purified scFv from positive clones identified from screening were tested in either of the above receptor-ligand HTRF® assays for inhibition of binding of human HIS FLAG tagged IL1 beta to human HIS IL1RFc. A skilled person could modify these assays to test IgG or other inhibitor formats. A titration of scFv concentrations was used in order to establish the clone potency as measured by IC₅₀ values in the assay. All dilutions were carried out in assay buffer. 5 μl of a titration of purified scFv sample was added to a 384 well low volume assay plate (Costar 3676). This was then followed by addition of 2 nM human HIS IL1RFc (when using in house HIS IL1 beta) or 8 nM HIS IL1RFc (when using Alexis source IL1 beta) to a volume of 20 μl. Assay plates were then sealed and incubated at room temperature in dark for 1 hour. The subsequent addition steps were carried out as exactly as described for crude scFv containing periplasmic extracts.

[6] = biological target: T2, human histidine tagged (HIS) IL1RFc …; assay: HTRF receptor-ligand assay, scFv inhibiting HIS FLAG IL-1β binding to human HIS IL1RFc
Method: as §2, §3

[7] = biological target: Antibody 6 (Eu3+ cryptate labelled, Example 5); assay: HTRF competition assay, against human IL-1R1 as reference
Method: (§4) Antibody was cryptate labelled with Eu³′ Cryptate labelling kit according to the manufacturer's instructions (CisBio International Cat No. 62EUSPEA) and IL-1R1/Fc (SEQ ID NO: 134, see Material and Methods) was Biotin labelled with EZ Link Sulfo-NHS-Biotin (Perbio Cat No. 21335) according to the manufacturer's instructions. Assay conditions were 0.25 nM Cryptate labelled antibody, 0.3 nM biotin labelled IL-1R1/Fc, 2.5 nM streptavidin XL^{ent!} (CisBio International Cat. No. 611SAXLB) in 1×D-PBS, 0.1% BSA, 0.4M potassium fluoride in a total volume of […] in a 384 well shallow well costar plate (3676). To the assay a dilution series (from maximum of 100 nM to 0.0017 nM) of test proteins was added and the assay incubated for 3 hours at room temperature. FRET signal was detected using a PerkinElmer EnVision plate reader using a 320 nm excitation filter and 620 nm and 665 nm emission filters. Results were calculated from the 665/620 ratio as a percentage of specific binding (signal with no competitor antigen). Results were analysed with Prism (GraphPad Software) using the sigmoidal dose response model.
Antibody binding of chimeric molecules was tested in an HTRF (Homogeneous Time Resolved Fluorescence) competition assay. […] From inhibition curves IC₅₀ values for human IL-1R1, mouse IL-1R1 and chimeric molecules were calculated (Table 12). […]

[8] = biological target: Antibody 6 (Eu3+ cryptate labelled, Example 5); assay: HTRF competition: unlabelled test protein against biotin labelled human IL-1R1/Fc binding to cryptate labelled antibody
Method: as §4
Antibody binding of chimeric molecules was tested in an HTRF (Homogeneous Time Resolved Fluorescence) competition assay. Molecules which bound antibody at the same paratope as human IL-1R1 inhibited the binding interaction, leading to a reduction in signal. From inhibition curves IC₅₀ values for human IL-1R1, mouse IL-1R1 and chimeric molecules were calculated (Table 12). […] Chimeras that gave similar IC₅₀ values to native human IL-1R1 still contained the epitope.

T1 sequence (chain, as listed by the source limits assumed): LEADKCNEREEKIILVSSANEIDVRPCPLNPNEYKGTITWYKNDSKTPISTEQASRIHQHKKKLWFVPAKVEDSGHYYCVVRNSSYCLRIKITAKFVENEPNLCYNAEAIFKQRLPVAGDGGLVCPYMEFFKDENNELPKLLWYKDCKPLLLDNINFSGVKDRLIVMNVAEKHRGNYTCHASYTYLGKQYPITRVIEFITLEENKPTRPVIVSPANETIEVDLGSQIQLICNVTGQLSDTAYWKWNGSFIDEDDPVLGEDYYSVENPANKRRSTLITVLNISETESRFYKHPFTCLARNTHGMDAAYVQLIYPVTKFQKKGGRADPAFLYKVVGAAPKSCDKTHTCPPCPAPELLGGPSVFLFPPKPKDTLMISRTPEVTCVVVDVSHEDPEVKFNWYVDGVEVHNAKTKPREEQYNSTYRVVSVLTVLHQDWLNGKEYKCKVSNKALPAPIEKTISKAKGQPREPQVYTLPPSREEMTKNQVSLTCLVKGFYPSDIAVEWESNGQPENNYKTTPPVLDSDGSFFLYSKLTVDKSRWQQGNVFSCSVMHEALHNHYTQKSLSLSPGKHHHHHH

B1: Antibody 6 FAb (Fab, V domains shown)
VH: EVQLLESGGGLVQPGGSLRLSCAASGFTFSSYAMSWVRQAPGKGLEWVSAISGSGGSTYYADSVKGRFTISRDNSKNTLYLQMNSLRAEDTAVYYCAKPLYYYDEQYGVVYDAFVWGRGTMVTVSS
VL: QSVLTQPPSVSGAPGQRVTISCTGSSSNIGAGYDVHWYQQLPGTAPKLLIYGDTHRPSGVPDRFSGSKSGTSASLVIAGLQAEDEADYYCQSYDTVRLHHVFGGGTKLTVL
notes: Monomeric FAb made by papain digestion of Antibody 6 IgG1TM; also called anti-IL-1R1FAb; monomerised FAb
Kd [1]: 0.0028 nM | Kd [2]: 0.0025 nM

B4: Antibody 4 scFv (scFv, V domains shown)
VH: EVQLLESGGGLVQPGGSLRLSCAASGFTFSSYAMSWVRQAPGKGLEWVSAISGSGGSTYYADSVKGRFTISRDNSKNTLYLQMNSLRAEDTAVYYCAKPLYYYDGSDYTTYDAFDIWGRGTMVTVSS
VL: QSVLTQPPSVSGAPGQRVTISCTGSSSNIGAGYDVHWYQQLPGTAPKLLIYGDTHRPSGVPDRFSGSKSGTSASLVIAGLQAEDEADYYCQSYDTSLSGSLFGGGTKLTVL
notes: Tested as purified scFv; also called KENB026 or KENB061 (parent, not resolved)
IC50 [6]: 22.5 nM

B5: MoD2c IL1R1 (Fc fusion, human;mouse, UniProt P14778 18-177, looked up, not shown: a dimerising Fc or GST)
chain: LEADKCKEREEKIILVSSANEIDVRPCPLNPNEHKGTITWYKDDSKTPVSTEQASRIHQHKEKLWFVPAKVEDSGHYYCVVRNSSYCLRIKISAKFVENEPNLCYNAQAIFKQKLPVAGDGGLVCPYMEFFKNENNELPKLQWYKDCKPLLLDNIHFSGVKDKLIVMNVAEKHRGNYTCHASYTYLGKQYPITRVIEFITLEENKPTRPVIVSPANETMEVDLGSQIQLICNVTGQLSDIAYWKWNGSVIDEDDPVLGEDYYSVENPANKRRSTLITVLNISEIESRFYKHPFTCFAKNTHGIDAAYIQLIYPVTNFQK
notes: also called chimera without loop d2-e2
fold higher IC50 than human IL-1R1 [7]: > 3 fold | IC50 [8]: 0.637 nM

Other lines, results leading:

Kd [3]: 0.00305 nM | Mean IC50, whole blood assay, IL-1beta induced release of IL-6 [4]: 311000 nM
B2: Antibody 6 IgG1TM (Triple Mutant, 234F, 235E and 331S) (antibody, V domains shown)
VH: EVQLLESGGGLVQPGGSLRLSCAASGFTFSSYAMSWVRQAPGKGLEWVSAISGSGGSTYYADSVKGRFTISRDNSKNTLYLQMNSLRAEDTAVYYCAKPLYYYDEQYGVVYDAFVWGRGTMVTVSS
VL: QSVLTQPPSVSGAPGQRVTISCTGSSSNIGAGYDVHWYQQLPGTAPKLLIYGDTHRPSGVPDRFSGSKSGTSASLVIAGLQAEDEADYYCQSYDTVRLHHVFGGGTKLTVL
notes: IgG1 with Fc triple mutant 234F, 235E, 331S (EU index)

IC50 [5]: ~225 nM
B3: Antibody 1 scFv (scFv, V domains shown)
VH: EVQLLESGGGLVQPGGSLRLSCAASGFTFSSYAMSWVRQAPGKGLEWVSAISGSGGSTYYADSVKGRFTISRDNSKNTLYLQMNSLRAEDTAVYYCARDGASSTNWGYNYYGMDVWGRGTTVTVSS
VL: QAVLTQPSSASGTPGQRVTISCSGSSSNIGSNYVFWYQQFPGTAPQLLVKWNNQRPSGVPDRFSGSKSGTSASLAISGLRSEDEADYYCAAWDDSLSGLVFGGGTKLTVL
notes: as for B4

fold higher IC50 than human IL1R1 [7]: 26 fold | IC50 [8]: 4.6 nM
B6: MoD2a IL1R1 (Fc fusion, human;mouse, UniProt P14778 18-122, looked up, not shown: a dimerising Fc or GST)
chain: LEADKCKEREEKIILVSSANEIDVRPCPLNPNEHKGTITWYKDDSKTPVSTEQASRIHQHKEKLWFVPAKVEDSGHYYCVVRNSSYCLRIKISAKFVENEPNLCYSTQATFPQRLHIAGDGGLVCPYMEFFKNENNELPKLQWYKDCKPLLLDNIHFSGVKDRLIVMNVAEKHRGNYTCHASYTYLGKQYPITRVIEFITLEENKPTRPVIVSPANETMEVDLGSQIQLICNVTGQLSDIAYWKWNGSVIDEDDPVLGEDYYSVENPANKRRSTLITVLNISEIESRFYKHPFTCFAKNTHGIDAAYIQLIYPVTNFQK
notes: range 1-122;range 126-137;range 135-336; also called chimera without human beta strand a2
